{"source": "patent US12397037B2", "about": "“Methods and compositions for immunomodulation” (CHILDREN'S MEDICAL CENTER CORPORATION, priority 2014, dated 2025)", "molecules": {"B1": {"name": "SEMA3F: Human recombinant full-length His-Myc-tagged SEMA3F, secreted by transfected 293T cells and purified; class 3 semaphorin, NRP-2 ligand (protein, listed as Homo sapiens)", "chain": "MLVAGLLLWASLLTGAWPSFPTQDHLPATPRVRLSFKELKATGTAHFFNFLLNTTDYRILLKDEDHDRMYVGSKDYVLSLDLHDINREPLIIHWAASPQRIEECVLSGKDVNGECGNFVRLIQPWNRTHLYVCGTGAYNPMCTYVNRGRRAQATPWTQTQAVRGRGSRATDGALRPMPTAPRQDYIFYLEPERLESGKGKCPYDPKLDTASALINEELYAGVYIDFMGTDAAIFRTLGKQTAMRTDQYNSRWLNDPSFIHAELIPDSAERNDDKLYFFFRERSAEAPQSPAVYARIGRICLNDDGGHCCLVNKWSTFLKARLVCSVPGEDGIETHFDELQDVFVQQTQDVRNPVIYAVFTSSGSVFRGSAVCVYSMADIRMVFNGPFAHKEGPNYQWMPFSGKMPYPRPGTCPGGTFTPSMKSTKDYPDEVINFMRSHPLMYQAVYPLQRRPLVVRTGAPYRLTTIAVDQVDAADGRYEVLFLGTDRGTVQKVIVLPKDDQELEELMLEEVEVFKDPAPVKTMTISSKRQQLYVASAVGVTHLSLHRCQAYGAACADCCLARDPYCAWDGQACSRYTASSKRRSRRQDVRHGNPIRQCRGFNSNANKNAVESVQYGVAGSAAFLECQPRSPQATVKWLFQRDPGDRRREIRAEDRFLRTEQGLLLRALQLSDRGLYSCTATENNFKHVVTRVQLHVLGRDAVHAALFPPLSMSAPPPPGAGPPTPPYQELAQLLAQPEVGLIHQYCQGYWRHVPPSPREAPGAPRSPEPQDQKKPRNRRHHPPDT", "modifications": "His-Myc tag", "notes": "Human recombinant full-length His-Myc-tagged SEMA3F, secreted by transfected 293T cells and purified; class 3 semaphorin, NRP-2 ligand"}}, "tested_on": "mTORC1 and mTORC2", "assay": "Immunoprecipitation of mTOR with raptor and rictor in U87MG cells", "assay_type": "cell-based, human", "details": "SEMA3F 640 ng/ml, 30 minutes", "description": "FIG. 29A depicts U87MG cells treated with SEMA3F (640 ng/ml) for 30 minutes and subjected to immunoprecipitation and Western blot analysis with anti-mTOR, -raptor and -rictor as illustrated. FIG. 29B depicts U87MG cells treated with rapamycin (10 nM) or Torin 1 (10 nM) for 30 minutes, prior to SEMA3F (640 ng/ml) treatment for 60 minutes; lysates were analyzed by Western blot. FIG. 29C depicts bar graphs representing densitometric analysis of the illustrated blot showing the fold change in intensity (mean±SD) relative to the untreated control (*, p <0.01; **, p<0.001 vs. untreated control). FIG. 29D depicts U87MG cells transiently transfected with a pcDNA3.1 empty vector or with constitutively active Akt (2DAkt). Cells were treated with SEMA3F (640 ng/ml) and lysates were analyzed by Western blot. All data are representative of 3 independent experiments.\nFIGS. 35A-35B depict analysis of the effect of SEMA3F on mTORC2 activity. […] depicts a Western blot. U87MG cells were transiently transfected with a pcDNA3.1 empty vector or with constitutively active Akt (2DAkt). Cells were treated with SEMA3F (640 ng/ml) and lysates were analyzed by Western blot. FIG. 35B depicts a Western blot. U87MG cells were transiently transfected with a pcDNA3.1 empty vector or with 2DAkt. […]"}
{"molecule": "B1", "values": [{"measurement": "association between mTOR and raptor / rictor", "result": "inhibited the association between mTOR and both raptor and rictor"}, {"measurement": "mTOR/rictor interaction in 2DAkt transfected cells", "result": "inhibited mTOR/rictor interaction"}]}
